IntAct's records for PubMed 15744310

B1: NAD-dependent protein deacetylase sirtuin-1 (Mus musculus), Q923E4 (parent)
chain: MADEVALALQAAGSPSAAAAMEAASQPADEPLRKRPRRDGPGLGRSPGEPSAAVAPAAAGCEAASAAAPAALWREAAGAAASAEREAPATAVAGDGDNGSGLRREPRAADDFDDDEGEEEDEAAAAAAAAAIGYRDNLLLTDGLLTNGFHSCESDDDDRTSHASSSDWTPRPRIGPYTFVQQHLMIGTDPRTILKDLLPETIPPPELDDMTLWQIVINILSEPPKRKKRKDINTIEDAVKLLQECKKIIVLTGAGVSVSCGIPDFRSRDGIYARLAVDFPDLPDPQAMFDIEYFRKDPRPFFKFAKEIYPGQFQPSLCHKFIALSDKEGKLLRNYTQNIDTLEQVAGIQRILQCHGSFATASCLICKYKVDCEAVRGDIFNQVVPRCPRCPADEPLAIMKPEIVFFGENLPEQFHRAMKYDKDEVDLLIVIGSSLKVRPVALIPSSIPHEVPQILINREPLPHLHFDVELLGDCDVIINELCHRLGGEYAKLCCNPVKLSEITEKPPRPQKELVHLSELPPTPLHISEDSSSPERTVPQDSSVIATLVDQATNNNVNDLEVSESSCVEEKPQEVQTSRNVENINVENPDFKAVGSSTADKNERTSVAETVRKCWPNRLAKEQISKRLEGNQYLFVPPNRYIFHGAEVYSDSEDDVLSSSSCGSNSDSGTCQSPSLEEPLEDESEIEEFYNGLEDDTERPECAGGSGFGADGGDQEVVNEAIATRQELTDVNYPSDKS
partner: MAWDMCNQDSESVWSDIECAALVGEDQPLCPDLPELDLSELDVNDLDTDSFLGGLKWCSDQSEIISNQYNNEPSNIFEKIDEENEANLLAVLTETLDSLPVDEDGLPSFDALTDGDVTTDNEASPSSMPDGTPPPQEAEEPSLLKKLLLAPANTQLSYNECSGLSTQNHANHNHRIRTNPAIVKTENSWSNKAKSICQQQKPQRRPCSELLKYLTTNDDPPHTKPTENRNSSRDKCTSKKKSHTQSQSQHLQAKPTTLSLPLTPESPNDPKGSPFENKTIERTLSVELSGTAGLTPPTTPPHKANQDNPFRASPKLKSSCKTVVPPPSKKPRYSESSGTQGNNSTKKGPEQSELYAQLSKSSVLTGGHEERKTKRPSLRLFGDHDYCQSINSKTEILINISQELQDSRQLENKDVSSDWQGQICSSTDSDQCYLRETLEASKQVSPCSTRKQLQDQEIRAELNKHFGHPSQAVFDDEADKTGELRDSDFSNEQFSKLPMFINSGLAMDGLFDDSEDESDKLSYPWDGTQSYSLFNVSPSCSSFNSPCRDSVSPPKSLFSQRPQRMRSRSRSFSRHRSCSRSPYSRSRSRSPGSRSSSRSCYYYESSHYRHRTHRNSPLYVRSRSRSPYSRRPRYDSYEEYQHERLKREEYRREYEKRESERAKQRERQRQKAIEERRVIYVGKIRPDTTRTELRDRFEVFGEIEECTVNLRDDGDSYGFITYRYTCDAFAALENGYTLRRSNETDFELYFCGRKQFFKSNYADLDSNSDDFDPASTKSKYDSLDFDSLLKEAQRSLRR

Variants of: B1
Details: with prgc1_human PPARGC1A

Row | Variant | effect of a mutation on the interaction
1 | H355A | decreasing interaction
